The text below walks through data of patent publication US20250361298A1.

Assay [1] has as its target Cynomolgus LY6G6D ectodomain fused to mouse IgG2A Fc (monovalent display, knob-in-hole) (cynomolgus). Nature of the assay: SPR, Biacore 8K+, cyno LY6G6D-mouse Fc captured by anti-mouse antibody on CM5, antibody as analyte 50-0.7813 nM, 25 C. (In general: Surface plasmon resonance follows binding to a sensor surface in real time, without labels.)
Assay [2] deals with T1, Human LY6G6D ectodomain fused to mouse IgG2A Fc (monovalent display, knob-in-hole) (human).
T1 sequence (O95868 whole entry, looked up): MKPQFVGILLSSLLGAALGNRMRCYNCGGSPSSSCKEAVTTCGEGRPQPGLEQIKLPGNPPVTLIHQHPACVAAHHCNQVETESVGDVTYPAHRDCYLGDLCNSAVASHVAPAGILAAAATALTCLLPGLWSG
Kind of assay: SPR, Biacore 8K+, LY6G6D-mouse Fc captured by anti-mouse antibody on CM5, antibody as analyte 50-0.7813 nM, 25 C.

As usually defined, the Kd is a measure of binding affinity in units of concentration. Read a high Kd as a looser complex. As usually defined, the koff is the rate constant with which the complex falls apart. Low readings indicate a long-lived complex, high ones a short-lived complex. Usually kon stands for the second-order rate constant of association. High values mean faster complex formation, low ones slower complex formation.

Cynomolgus LY6G6D ectodomain fused to mouse IgG2A Fc (monovalent display, knob-in-hole) (cynomolgus), sequence (O95868 other isoform, or with tags, fused parts or gaps limits assumed): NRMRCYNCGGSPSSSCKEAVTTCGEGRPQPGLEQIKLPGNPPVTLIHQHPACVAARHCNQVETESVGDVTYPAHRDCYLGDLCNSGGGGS

B1: 20A12.QNTv12 (antibody, from another filing, V domains shown)
VH: EVQLLESGGGLVQPGGSLRLSCAASGFDFVNNAMIWVRQAPGKGLEWVSALSFADNTAYYATWASGRFTISRDSSKTTVYLQMNSLRAEDTAVYYCMRGDLWGPGTLVTVSS
VL: DIQMTQSPSTLSASVGDRVTITCQASESITRYLNWYQQKPGKAPKLLIYDASKLPSGVPSRFSGSGSGTEFTLTISSLQPDDFATYYCQSTSFRGRSYQNTFGGGTKVEIKR
As to B1, in assay [1], the Kd came to 3.4 nM, the koff came to 0.00038 s⁻¹ and the kon was found to be 112000 M⁻¹ s⁻¹. In assay [2], the Kd amounted to 3.67 nM and the kon was determined as 109000 M⁻¹ s⁻¹.
